Experimental data published in PMC5082758, “A Novel Pathway for Metabolism of the Cardiovascular Risk Factor Homoarginine by alanine:glyoxylate aminotransferase 2” (Scientific Reports, 2016).

Columns and labels:
[1] = substrate: C[C@H](N)C(=O)O; assay: purified protein; conditions: amino donor, co-substrate 1 mM glyoxylate, PLP added (200 μM in methods, 100 μM in Figure 3 legend), potassium phosphate pH 8, 0.15 M NaCl, 25 °C
[2] = substrate: N=C(N)NCCCC[C@H](N)C(=O)O; assay: purified protein; format: biochemical, Homo sapiens; conditions: amino donor, co-substrate 1 mM pyruvate, PLP added (200 μM in methods, 100 μM in Figure 3 legend), potassium phosphate pH 8, 0.15 M NaCl, 25 °C

B1: human alanine:glyoxylate aminotransferase 2 (AGXT2) (Homo sapiens) (protein)
chain: LHTKPRMPPCDFMPERYQSLGYNRVLEIHKEHLSPVVTAYFQKPLLLHQGHMEWLFDAEGSRYLDFFSGIVTVSVGHCHPKVNAVAQKQLGRLWHTSTVFFHPPMHEYAEKLAALLPEPLKVIFLVNSGSEANELAMLMARAHSNNIDIISFRGAYHGCSPYTLGLTNVGTYKMELPGGTGCQPTMCPDVFRGPWGGSHCRDSPVQTIRKCSCAPDCCQAKDQYIEQFKDTLSTSVAKSIAGFFAEPIQGVNGVVQYPKGFLKEAFELVRARGGVCIADEVQTGFGRLGSHFWGFQTHDVLPDIVTMAKGIGNGFPMAAVITTPEIAKSLAKCLQHFNTFGGNPMACAIGSAVLEVIKEENLQENSQEVGTYMLLKFAKLRDEFEIVGDVRGKGLMIGIEMVQDKISCRPLPREEVNQIHEDCKHMGLLVGRGSIFSQTFRIAPSMCITKPEVDFAVEVFRSALTQHMERRAK
notes: C-terminal FLAG fusion under CAG promoter; tag kept
Km [1]: 25 ± 3 mM
kcat [1]: 0.142 ± 0.0083 s⁻¹
kcat/Km [1]: 5.67 M⁻¹ s⁻¹
Km [2]: 24 ± 3 mM
kcat [2]: 0.0188 ± 0.00067 s⁻¹
kcat/Km [2]: 0.783 ± 0.1 M⁻¹ s⁻¹
